Data set [1] has as its target T1, CSEP0064/BEC1054 (Blumeria graminis, UniProt N1JJ94 22-118).
T1 sequence: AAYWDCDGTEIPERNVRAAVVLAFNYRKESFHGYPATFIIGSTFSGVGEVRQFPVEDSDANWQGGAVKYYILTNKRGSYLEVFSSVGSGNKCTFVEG
Briefly: NMR 1H-15N HSQC titration; 8 mole equivalents; discrete CSPs, weak. As to conditions: protein: recombinant; tags: Trx-His6 removed by TEV; NT-647 NHS amine label for MST; 15N for NMR; hairpin (SRL fold).

Data set [2] addresses T1, CSEP0064/BEC1054. Briefly: NMR 1H-15N HSQC titration; fast exchange; small CSPs, saturation at ~50 molar equivalents; binding observed. As to conditions: protein: recombinant; tags: Trx-His6 removed by TEV; NT-647 NHS amine label for MST; 15N for NMR; hairpin (predicted same fold as SRL RNA).
Data set [3] concerns the target T1, CSEP0064/BEC1054. Put plainly: MST; up to 1 mM; no curve could be fitted; MST: 20 mM Tris pH 7.4, 150 mM NaCl, 0.05% Tween, 50 nM labelled protein; NMR: 50 uM protein, 50 mM Tris, 150 mM NaCl, 308 K. As to conditions: protein: recombinant; tags: Trx-His6 removed by TEV; NT-647 NHS amine label for MST; 15N for NMR; single strand.

With ACCUGCUCAGUACGAGAGGAACCGCAGGU (structured_RNA) [SRL RNA (barley 28S rRNA sarcin-ricin loop)], in data set [1], the binding result is given as “binds”.

As to ACCTGCTCAGTACGAGAGGAACCGCAGGT (structured_DNA, DNA version of SRL RNA) [SRL DNA oligonucleotide], the Kd in data set [2] is > 10 µM.

Consider AAUUUAAUACGACUCACUAUAGG (ssRNA) [bacteriophage T7 promoter RNA (non-rRNA control)], for which, in data set [3], the binding result is reported as “no binding”.

(Values after paper PMC6464244, “The fungal ribonuclease-like effector protein CSEP0064/BEC1054 represses plant immunity and interferes with degradation of host ribosomal RNA”.)
